The values that follow are results of earlier work, collected in publication PMC8281132.

This series concerns the target CD155 (Homo sapiens) (UniProt P15151).
Chain of UniProt P15151 (P15151 21-343): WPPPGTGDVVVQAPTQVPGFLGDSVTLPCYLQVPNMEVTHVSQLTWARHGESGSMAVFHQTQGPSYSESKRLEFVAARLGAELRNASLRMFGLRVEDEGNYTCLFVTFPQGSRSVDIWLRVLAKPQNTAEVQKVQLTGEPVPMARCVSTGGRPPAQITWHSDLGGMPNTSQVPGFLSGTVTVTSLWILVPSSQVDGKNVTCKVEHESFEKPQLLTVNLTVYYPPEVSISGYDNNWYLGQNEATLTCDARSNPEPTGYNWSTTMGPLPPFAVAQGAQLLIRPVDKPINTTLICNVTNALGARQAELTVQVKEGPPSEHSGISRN

Consider TIGIT (from UniProt Q495A1), for which the Kd was 2 nM.

As usually defined, the Kd is a measure of binding affinity in units of concentration.
